Molecular target: T1, Vascular Endothelial Growth Factor (VEGF), His-tagged, refolded dimer (UniProt P15692-4 37-135)
T1 sequence (looked up): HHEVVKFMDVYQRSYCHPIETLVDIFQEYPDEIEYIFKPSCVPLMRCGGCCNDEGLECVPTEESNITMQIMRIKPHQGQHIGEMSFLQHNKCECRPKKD

fold increase in luminescence: 15 fold
B1: Flt-1 domain 2 fused to the N-terminal half of firefly luciferase (residues 2-416) (receptor, UniProt P17948 129-229, looked up, not shown: small tags and cut ends)
chain: SDTGRPFVEMYSEIPEIIHMTEGRELVIPCRVTSPNITVTLKKFPLDTLIPDGKRIIWDSRKGFIISNATYKEIGLLTCEATVNGHLYKTNYLTHRQTNTIEDAKNIKKGPAPFYPLEDGTAGEQLHKAMKRYALVPGTIAFTDAHIEVNITYAEYFEMSVRLAEAMKRYGLNTNHRIVVCSENSLQFFMPVLGALFIGVAVAPANDIYNERELLNSMNISQPTVVFVSKKGLQKILNVQKKLPIIQKIIIMDSKTDYQGFQSMYTFVTSHLPPGFNEYDFVPESFDRDKTIALIMNSSGSTGLPKGVALPHRTACVRFSHARDPIFGNQIIPDTAILSVVPFHHGFGMFTTLGYLICGFRVVLMYRFEEELFLRSLQDYKIQSALLVPTLFSFFAKSTLIDKYDLSNLHEIASGGAPLSKEVGEAVAKRFHLPGIRQGYGLTETTSAILITPEGDDKPGAVGKVVPFFEAKVVDLDTGKTLGVNQRGELCVRGPMIMSGYVNNPEATNALIDKDG

Reference: patent US20090170069A1 (ARIZONA BOARD OF REGENTS ON BEHALF OF THE UNIVERSITY OF …, published 2009)
